Data on 5 proteins can be found in paper PMC3688963, “Biochemical Characterization of Hypothetical Proteins from Helicobacter pylori” (PLoS ONE, 2013).

Substrate in data set [1]: Nc1nc2c(ncn2[C@@H]2O[C@H](COP(=O)(O)OP(=O)(O)OP(=O)(O)O)[C@@H](O)[C@H]2O)c(=O)[nH]1
Nature of the data set: phosphate release, malachite green. Type of data set: biochemical, Helicobacter pylori. The following applies: 10 mM MgCl2, 10% glycerol, 100 mM sodium acetate pH 6.0, 30°C. The source says: phosphate release, malachite green on HP1079

Substrate in data set [2]: Nc1nc2c(ncn2[C@@H]2O[C@H](COP(=O)(O)OP(=O)(O)OP(=O)(O)O)[C@@H](O)[C@H]2O)c(=O)[nH]1
Description: fluorimetric neopterin detection after iodine oxidation and alkaline phosphatase. Type of data set: biochemical, Helicobacter pylori. Conditions: 100 mM sodium citrate pH 4.0, 30°C, 2.5 mM EDTA. The source says:
fluorimetric neopterin detection after iodine oxidation and alkaline phosphatase on HP0959

Substrate in data set [3]: [H][C@@]12COP(=O)(O)O[C@@]1([H])[C@@H](O)[C@H](n1cnc3c(=O)[nH]c(N)nc31)O2
Description: alkaline phosphatase-coupled phosphate release, malachite green. The data set is classed as biochemical, Helicobacter pylori. The following applies: 0.1 mM MnCl2, pH 4.0-4.5, 30°C.

Substrate in data set [4]: O=[N+]([O-])c1ccc(OP(=O)(O)Oc2ccc([N+](=O)[O-])cc2)cc1
Description: purified protein. Type of data set: biochemical, Helicobacter pylori. Conditions: 1.0 mM MnCl2, 100 mM sodium citrate pH 4.5 (4.0 in Figure 1 legend), 30°C.

Substrate in data set [5]: Cc1cc(=O)oc2cc(NC(=O)[C@H](CCCNC(=N)N)NC(=O)[C@@H](N)Cc3ccccc3)ccc12
Description: purified protein. Conditions: 100 mM sodium citrate pH 4.5, 30°C, 5 mM CaCl2, 0.1% Brij.

Substrate in data set [6]: Nc1ncnc2nc[nH]c12
Description: purified protein. The data set is classed as biochemical, Helicobacter pylori. The following applies: 100 mM HEPES pH 7.5, 30°C, native protein.

B1: HP1079 (Helicobacter pylori 26695) (protein)
chain: MIQSVRIKNFKNFKNTKIDGFTKLNIITGQNNAGKSNLLEALYYLVGKSMHPCTNVLEIYDNIRKEPLTSESKSLMFYGLDTKEEIQIVTTLDNNQTLDLQIKFIASENQKVIESQIIPTAEQTQMSSQLNFTLKKNNEEIYNDHLNIAKVPNFPPIPNQSGYNRQFKNFDSNQLQKLLPFESAVIIPSDVVYRQAHMIQAVSKICSNNQLEEELNKHLNQFDNNIQAISFNTNNQLKLKVKDIKEKVPLSVFGDGLKKYLHIVSAFMADNAKTIYIDEVENGLHFSRMRLLLKNTIDFINNNKDGNLQVFMTTHSQEFIEILDQVIREKDFAHQTKLFCLKQDDQYVIPRTYYGENLEYYFENEENLFG
notes: native protein captured with GTP-coated nano-particles; His6 recombinant also made
One may read the Km as the substrate concentration at which the rate is half of its maximum. For orientation: kcat means the maximal rate divided by the concentration of active sites. Broadly, the kcat/Km is the turnover number divided by the Michaelis constant. On to B1, for which, in data set [1], the Km was determined as 580 ± 50 µM, the kcat was found to be 0.0095 ± 0.002 s⁻¹ and the catalytic efficiency (kcat/Km) was 20 M⁻¹ s⁻¹.

B2: HP0959 (Helicobacter pylori 26695) (protein)
chain: MALVKEVLVVLNRLSPFELQESWDNSGLNVGSENSEFSEIVACLEITLKIALNAPQNALIITHHPLIFKPLKTLNDEIYPGNILKILIQKNVSVISMHTNFDKTHLNKHFAHALLEFDGLVEKGLMLVKENANIEFDALVKKIKSSLGVGSLACVKSSQTIKDLAFVCGSGASMFSSLKAQSCLITGDVKYHDAMIAQSLGISLIDATHYYSERGFALIVAEILHSFNYLVTIENFKNPLQII
notes: native protein captured with GTP/dihydroneopterin triphosphate-coated nano-particles (co-captured with HP0803); His6 recombinant also active
A word on the Vmax: it is the top rate of the reaction or transport when substrate is in excess. For the protein B2, in data set [2], the Km was 40 ± 5 µM, the maximum rate (Vmax) amounted to 1420 µM/min, the kcat was 43.2 ± 0.483 s⁻¹ and the kcat/Km came out at 1.08e+06 M⁻¹ s⁻¹.

B3: HP1042 (Helicobacter pylori 26695) (protein)
chain: MMQVYHLSHIDLDGYACQLVSKQFFKNIQCYNANYGREVSARIYEILNAIAQSKESEFLILVSDLNLNLNEAEYLQDKIQEHRLQNKNIQIQLLDHHISGKEVAESFHWYFLDINRCATKIVYEFLKKHYAILEPKNTTWLEPLVEMVNSVDIWDTQGYGFELGKVCMRMINQSSELNRFMFDDENRNYKLKLLEEVKNYLFLENAPVAYDNDLFKLKKIALGGDPDAETMDNISSNAQTHLLSLKKHDCSVYYQDKKGFLSYSMGGISVLANLFLTQNPDFDFYMDVNAKGNVSLRANGNCDVCELSQMCFNGGGHRNASGGKIDGFRESFNYRDIKEQIEEIFNNA
notes: native protein captured with cAMP-coated nano-particles; His6 recombinant also made
Consider B3, for which, in data set [3], the Km was found to be 820 ± 150 µM, the Vmax was determined as 5130 µM/min, the kcat was determined as 15.9 ± 1.37 s⁻¹ and the catalytic efficiency (kcat/Km) stood at 19500 M⁻¹ s⁻¹. In addition, in “purified protein [4]”, the Michaelis-Menten constant (Km) was 530 ± 40 µM, the Vmax was determined as 1130 µM/min, the catalytic constant (kcat) came to 18.1 ± 0.2 s⁻¹ and the kcat/Km amounted to 34100 M⁻¹ s⁻¹.

B4: HP1037 (Helicobacter pylori 26695) (protein)
chain: MKGLERESHFTLNENAMFFECAYSCDNALFLQLDDRSFFITDSRYTQEAKESVQPKNGVLAEVVESSDLVQSAIDLIVKSSVKKLFFDPNQVNLQTYKRLNSALGDKVALEGVPSYHRQKRIIKNEHEIQLLKKSQALNVEAFENFAEYVKKIFDEKESLSERYLQHKVKDFLTREGVYDLSFEPILALNANASKPHALPSAKDFLKAEHSILLDMGIKYERYCSDRTRTAFFDPKDFVFKREQSFKDKERQKIYDIVKEAQEKAISGIRAGMTGKEADSLARGVISDYGYGQYFTHSTGHGIGLDIHELPYISSRSETILEEGMVFSVEPGIYIPGFFGVRIEDLVVIKNSRSELL
For B4, in “purified protein [5]”, the Michaelis constant (Km) is 7430 ± 360 µM, the Vmax was found to be 750 µM/min, the catalytic constant (kcat) is 0.17 s⁻¹ and the kcat/Km amounted to 20 M⁻¹ s⁻¹.

B5: HP0267 (native protein) (Helicobacter pylori 26695) (protein)
chain: MQEIIGASLVFLCNEKCEVLEDYGVVFDEKIVEIGDYQSLTLKYPHLKAQFFENSVLLPAFINAHTHFEFSNNKASFDYGSFSGWLGSVLNNGGAILENCQGAIQNAISTQLKSGVGSVGAISNHLIEVNLLKESPLNAVVFLEFLGSSYSLEKLKAFEAKFKELKDLEDKKLKAALAVHAPYSVQKDMALSVIQLAKDSQSLLSTHFLESLEELEWVENSKGWFENFYQHFLKESHFKSLYKGANDYIDMFKDTHTLFVHNQFASLEALKRIKSQVKNAFLITCPFSNRLLSGQALDLERTKEAGLSVSVATDGLSSNISLSLLDELRAFLLTHNMPLLELAKIALLGATRHGAKALALNNGEIEANKRADLSVFGFNEKFTKEQAILQFLLHAKEVECLFLGGKRVI
notes: native protein captured from H. pylori lysate with adenine-coated gold nano-particles, gel filtration; no tag
As for B5, in the data set “purified protein [6]”, the Km turned out to be 2040 ± 160 µM, the maximum rate (Vmax) was found to be 3 µM/min, the kcat came out at 0.00783 ± 0.00217 s⁻¹ and the kcat/Km amounted to 4 M⁻¹ s⁻¹.
